{"source": "the RNAGym collection of RNA variant scans (doi:10.1101/gr.219683.116)", "parents": {"B1": {"name": "mRNA-splicing (parent)", "chain": "AGUUGCUGCUGGGAGCUCCAGCACAGUGAAAUGGACAGAAGGGCAGAGCAA"}}}
{"variants_of": "B1", "assay": "exon inclusion enrichment index; higher = more inclusion; WT1 exon 5 minigene, HEK293"}
{"variant": "G5A C6G U7G C9A C36A A37U", "exon inclusion enrichment index": 0.00282}
{"variant": "G5A C6G U7G C9A C36A A37C", "exon inclusion enrichment index": 0.00188}
{"variant": "G5A C6G U7G C9A C36A A37G", "exon inclusion enrichment index": 0.00191}
{"variant": "G5A C6G U7G C9A G13U A14U", "exon inclusion enrichment index": 0.000524}
{"variant": "G5A C6G U7G C9A G13U A14C", "exon inclusion enrichment index": 0.00403}
{"variant": "G5A C6G U7G C9A G13U A14G", "exon inclusion enrichment index": 0.00052}
{"variant": "G5A C6G U7G C9A C22U A23C", "exon inclusion enrichment index": 0.000879}
{"variant": "G5A C6G U7G C9A C22U A23U", "exon inclusion enrichment index": 0.00262}
{"variant": "G5A C6G U7G C9A C22U A23G", "exon inclusion enrichment index": 0.00203}
{"variant": "G5A C6G U7G C9A G43C C44A", "exon inclusion enrichment index": 0.0166}
{"variant": "G5A C6G U7G C9A G43C C44G", "exon inclusion enrichment index": 0.0277}
{"variant": "G5A C6G U7G C9A G43C C44U", "exon inclusion enrichment index": 0.000823}
{"variant": "G5A C6G U7G C9A C19A A20C", "exon inclusion enrichment index": 0.00131}
{"variant": "G5A C6G U7G C9A C19A A20G", "exon inclusion enrichment index": 0.00156}
{"variant": "G5A C6G U7G C9A C19A A20U", "exon inclusion enrichment index": 0.00128}
{"variant": "G5A C6G U7G C9A U10G G11C", "exon inclusion enrichment index": 0.00673}
{"variant": "G5A C6G U7G C9A U10G G11U", "exon inclusion enrichment index": 0.00152}
{"variant": "G5A C6G U7G C9A U10G G11A", "exon inclusion enrichment index": 0.00349}
{"variant": "G5A C6G U7G C9A A40C G41U", "exon inclusion enrichment index": 0.00114}
{"variant": "G5A C6G U7G C9A A40C G41A", "exon inclusion enrichment index": 0.00061}
{"variant": "G5A C6G U7G C9A A40C G41C", "exon inclusion enrichment index": 0.0197}
{"variant": "G5A C6G U7G C9A G28A A29C", "exon inclusion enrichment index": 0.00171}
{"variant": "G5A C6G U7G C9A G28A A29U", "exon inclusion enrichment index": 0.000814}
{"variant": "G5A C6G U7G C9A G28A A29G", "exon inclusion enrichment index": 0.000786}
{"variant": "G5A C6G U7G C9A C44U", "exon inclusion enrichment index": 0.000609}
{"variant": "G5A C6G U7G C9A C44A", "exon inclusion enrichment index": 0.00167}
{"variant": "G5A C6G U7G C9A C44G", "exon inclusion enrichment index": 0.00206}
{"variant": "G5A C6G U7G C9A G34C A35G", "exon inclusion enrichment index": 0.00232}
{"variant": "G5A C6G U7G C9A G34C A35C", "exon inclusion enrichment index": 0.00219}
{"variant": "G5A C6G U7G C9A G34C A35U", "exon inclusion enrichment index": 0.00103}
{"variant": "G5A C6G U7G C9A G26U U27C", "exon inclusion enrichment index": 0.0253}
{"variant": "G5A C6G U7G C9A G26U U27A", "exon inclusion enrichment index": 0.00104}
{"variant": "G5A C6G U7G C9A G26U U27G", "exon inclusion enrichment index": 0.00474}
{"variant": "G5A C6G U7G C9A A40C", "exon inclusion enrichment index": 0.00374}
{"variant": "G5A C6G U7G C9A A40G", "exon inclusion enrichment index": 0.00228}
{"variant": "G5A C6G U7G C9A A40U", "exon inclusion enrichment index": 0.00193}
{"variant": "G5A C6G U7G C9A A39U A40C", "exon inclusion enrichment index": 0.0022}
{"variant": "G5A C6G U7G C9A A39U A40U", "exon inclusion enrichment index": 0.00155}
{"variant": "G5A C6G U7G C9A A39U A40G", "exon inclusion enrichment index": 0.00317}
{"variant": "G5A C6G U7G C9A A47G", "exon inclusion enrichment index": 0.00123}
{"variant": "G5A C6G U7G C9A A47C", "exon inclusion enrichment index": 0.0181}
{"variant": "G5A C6G U7G C9A A47U", "exon inclusion enrichment index": 0.00119}
{"variant": "G5A C6G U7G C9A C18G C19U", "exon inclusion enrichment index": 0.00119}
{"variant": "G5A C6G U7G C9A C18G C19G", "exon inclusion enrichment index": 0.0012}
{"variant": "G5A C6G U7G C9A C18G C19A", "exon inclusion enrichment index": 0.00169}
{"variant": "G5A C6G U7G C9A A45U G46U", "exon inclusion enrichment index": 0.000766}
{"variant": "G5A C6G U7G C9A A45U G46A", "exon inclusion enrichment index": 0.00219}
{"variant": "G5A C6G U7G C9A A45U G46C", "exon inclusion enrichment index": 0.00134}
{"variant": "G5A C6G U7G C9A G46C", "exon inclusion enrichment index": 0.00111}
{"variant": "G5A C6G U7G C9A G46U", "exon inclusion enrichment index": 0.000617}
{"variant": "G5A C6G U7G C9A G46A", "exon inclusion enrichment index": 0.00583}
{"variant": "G5A C6G U7G C9A A47C G48C", "exon inclusion enrichment index": 0.00224}
{"variant": "G5A C6G U7G C9A A47C G48U", "exon inclusion enrichment index": 0.00274}
{"variant": "G5A C6G U7G C9A A47C G48A", "exon inclusion enrichment index": 0.011}
{"variant": "G5A C6G U7G C9A G13A A14C", "exon inclusion enrichment index": 0.0219}
{"variant": "G5A C6G U7G C9A G13A A14U", "exon inclusion enrichment index": 0.0021}
{"variant": "G5A C6G U7G C9A G13A A14G", "exon inclusion enrichment index": 0.00529}
{"variant": "G5A C6G U7G C9A G12A", "exon inclusion enrichment index": 0.000801}
{"variant": "G5A C6G U7G C9A G12C", "exon inclusion enrichment index": 0.00529}
{"variant": "G5A C6G U7G C9A G12U", "exon inclusion enrichment index": 0.00152}
{"variant": "G5A C6G U7G C9A G41C G42U", "exon inclusion enrichment index": 0.0271}
{"variant": "G5A C6G U7G C9A G41C G42C", "exon inclusion enrichment index": 0.0196}
{"variant": "G5A C6G U7G C9A G41C G42A", "exon inclusion enrichment index": 0.00376}
{"variant": "G5A C6G U7G C9A G21U C22U", "exon inclusion enrichment index": 0.00236}
{"variant": "G5A C6G U7G C9A G21U C22G", "exon inclusion enrichment index": 0.000869}
{"variant": "G5A C6G U7G C9A G21U C22A", "exon inclusion enrichment index": 0.00074}
{"variant": "G5A C6G U7G C9A C19U A20C", "exon inclusion enrichment index": 0.00291}
{"variant": "G5A C6G U7G C9A C19U A20G", "exon inclusion enrichment index": 0.00155}
{"variant": "G5A C6G U7G C9A C19U A20U", "exon inclusion enrichment index": 0.00173}
{"variant": "G5A C6G U7G C9A C44G A45C", "exon inclusion enrichment index": 0.00471}
{"variant": "G5A C6G U7G C9A C44G A45U", "exon inclusion enrichment index": 0.00421}
{"variant": "G5A C6G U7G C9A C44G A45G", "exon inclusion enrichment index": 0.00929}
{"variant": "G5A C6G U7G C9A G13C A14C", "exon inclusion enrichment index": 0.00967}
{"variant": "G5A C6G U7G C9A G13C A14G", "exon inclusion enrichment index": 0.00374}
{"variant": "G5A C6G U7G C9A G13C A14U", "exon inclusion enrichment index": 0.0025}
{"variant": "G5A C6G U7G C9A U10A G11A", "exon inclusion enrichment index": 0.00112}
{"variant": "G5A C6G U7G C9A U10A G11U", "exon inclusion enrichment index": 0.00545}
{"variant": "G5A C6G U7G C9A U10A G11C", "exon inclusion enrichment index": 0.0223}
{"variant": "G5A C6G U7G C9A G43U C44G", "exon inclusion enrichment index": 0.000892}
{"variant": "G5A C6G U7G C9A G43U C44U", "exon inclusion enrichment index": 0.00214}
{"variant": "G5A C6G U7G C9A G43U C44A", "exon inclusion enrichment index": 0.00143}
{"variant": "G5A C6G U7G C9A C16A U17C", "exon inclusion enrichment index": 0.00344}
{"variant": "G5A C6G U7G C9A C16A U17G", "exon inclusion enrichment index": 0.00129}
